According to the RNAGym collection of RNA variant scans (doi:10.1093/molbev/msab373):

B1: Azoarcus group I ribozyme (parent)
chain: GUGCCUUGCGCCGGGAAACCACGCAAGGGAUGGUGUCAAAUUCGGCGAAACCUAAGCGCCCGCCCGGGCGUAUGGCAACGCCGAGCCAAGCUUCGGCGCCUGCGCCGAUGAAGGUGUAGAGACUAGACGGCACCCACCUAAGGCAAACGCUAUGGUGAAGGCAUAGUCCAGGGAGUGGCGAAAGUCACACAAACCGG

Variants of: B1
Experiment: reverse-splicing fitness (ratio to wild type); higher = more active; in vitro selection; Mg2+ level not given
How it was run: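 An in vitro group I ribozyme library with randomized positions was T7-transcribed and gel-purified. In triplicate, 10 pmol RNA in EPPS pH 7.5 was reacted with 50 pmoles of a 30-nt RNA substrate for 1 h at 37 °C across several added MgCl2 levels (1–48 mM), then stopped with EDTA. Products were reverse transcribed from a substrate-complementary primer, PCR-amplified and sequenced (HiSeq 4000). Fitness is a variant's read proportion after selection over that before, normalised to wild type.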

Variant	reverse-splicing fitness
C82G A111C A120U A145G C150U C169U U176C	0.00492
C82G A111C A120U A145G C150U C169U U176G	0.00262
C82G A111C A120U A145G C150U C169U U176A	0.00549
C82G A111C A120U A145C C150A C169U U176C	0.00331
C82G A111C A120U A145C C150A C169U U176A	0.00291
C82G A111C A120U A145C C150A C169U U176G	0.00237
C82G A111C A145C C150A C169U	0.00955
C82G A111C A145C C150A C169A	0.00842
C82G A111C A145C C150A C169G	0.00856
C82G A111C A120U A145G C150A C169G U176G	0.00277
C82G A111C A120U A145G C150A C169G U176A	0.00649
C82G A111C A120U A145G C150A C169G U176C	0.00534
C82G A111C A145C C150G C169U	0.00892
C82G A111C A145C C150G C169A	0.00941
C82G A111C A145C C150G C169G	0.00675
C82G A111C A120U A145U C150G C169A	0.00457
C82G A111C A120U A145U C150G C169U	0.00326
C82G A111C A120U A145U C150G C169G	0.00414
C82G A111C A120U C150A C169U	0.00505
C82G A111C A120U C150A C169A	0.00547
C82G A111C A120U C150A C169G	0.0046

Variant	reverse-splicing fitness
C82G A111C A120U A145U C150A U176G	0.00269
C82G A111C A120U A145U C150A U176A	0.00533
C82G A111C A120U A145U C150A U176C	0.00583
C82G A111C A120U A145U C150A C169A U176A	0.00336
C82G A111C A120U A145U C150A C169A U176G	0.00195
C82G A111C A120U A145U C150A C169A U176C	0.00267
C82G A111C A120U A145U C150A C169U U176C	0.00353
C82G A111C A120U A145U C150A C169U U176G	0.00243
C82G A111C A120U A145U C150A C169U U176A	0.00302
C82G A111C A145C C150U U176C	0.044
C82G A111C A145C C150U U176A	0.0341
C82G A111C A145C C150U U176G	0.0162
C82G A111C A120U A145G C150U U176A	0.0115
C82G A111C A120U A145G C150U U176G	0.00399
C82G A111C A120U A145G C150U U176C	0.0162
C82G A111C A120U A145U C169A	0.00231
C82G A111C A120U A145U C169G	0.00373
C82G A111C A120U A145U C169U	0.00412
C82G A111C A120U A145G C150U C169U	0.00642
C82G A111C A120U A145G C150U C169G	0.00657
C82G A111C A120U A145G C150U C169A	0.00785

Variant	reverse-splicing fitness
C82G A111C A145C C169A U176G	0.00713
C82G A111C A145C C169A U176A	0.0184
C82G A111C A145C C169A U176C	0.015
C82G A111C A120U A145U C150U C169G U176C	0.00346
C82G A111C A120U A145U C150U C169G U176G	0.00273
C82G A111C A120U A145U C150U C169G U176A	0.00347
C82G A111C A120U A145G C150G C169U	0.00758
C82G A111C A120U A145G C150G C169A	0.00854
C82G A111C A120U A145G C150G C169G	0.00703
C82G A111C A120U A145C C150G C169U U176C	0.00324
C82G A111C A120U A145C C150G C169U U176G	0.00222
C82G A111C A120U A145C C150G C169U U176A	0.00358
C82G A111C A145C C150G C169A U176C	0.00828
C82G A111C A145C C150G C169A U176A	0.00825
C82G A111C A145C C150G C169A U176G	0.00732
C82G A111C A120U A145G C150G C169U U176A	0.00988
C82G A111C A120U A145G C150G C169U U176G	0.00438
C82G A111C A120U A145G C150G C169U U176C	0.00748
C82G A111C A120U A145G C169U	0.00527
C82G A111C A120U A145G C169G	0.00473
C82G A111C A120U A145G C169A	0.00335

Variant	reverse-splicing fitness
C82G A111C A120U C150G U176G	0.00279
C82G A111C A120U C150G U176C	0.00675
C82G A111C A120U C150G U176A	0.00422
C82G A111C A120U A145G C150G U176C	0.009
C82G A111C A120U A145G C150G U176A	0.00628
C82G A111C A120U A145G C150G U176G	0.00447
C82G A111C A120U A145C U176G	0.00462
C82G A111C A120U A145C U176A	0.0111
C82G A111C A120U A145C U176C	0.013
C82G A111C A120U C150U C169U	0.00568
C82G A111C A120U C150U C169A	0.00635
C82G A111C A120U C150U C169G	0.00542
C82G A111C A120U A145G C150G C169A U176A	0.0121
C82G A111C A120U A145G C150G C169A U176C	0.00861
C82G A111C A120U A145G C150G C169A U176G	0.00544
C82G A111C A120G C169G U176G	0.0044
C82G A111C A120G C169G U176A	0.0184
C82G A111C A120G C169G U176C	0.0224
C82G A111C A120U A145U C150A C169G U176G	0.00223
C82G A111C A120U A145U C150A C169G U176A	0.00297
